{"source": "paper PMC9769388", "about": "(Journal of Virology, 2022)", "binders": {"B1": {"name": "CG10 Fab (Fab, V domains shown)", "VH": "QVQLKQSGTELVRPGTSVKMSCKAAGYTFTDYWIGWVKQRPGHGLEWIGDFYPGGDYTLYSENFMGKASLTADTSSNTAYMQLSSLTSEDSAIYYCARGHYYGYSYAWFAYWGQGTLVTVSS", "VL": "DIVLTQSPASLAVSLGQRATISCKASQSVDYDGDSYMNWYQQKPGQPPKLLIYAASNLESGIPARFSGSGSGTDFTLNIHPVGEEDAATYYCQQSHEDPWTFGGGTMLEIK", "notes": "source: Expi293F, purified (Ni-NTA, SEC)"}}, "biological_target": "T1, soluble CD4 (D1D2 domains, residues 1 to 186)", "T1 construct": "also called sCD4; source: Expi293F, purified (StrepTrap HP, SEC)", "experiment": "cryo-EM structure; Fab, soluble SOSIP trimer and sCD4 incubated at a molar ratio of 3.6:1:3.6 Fab/Env/sCD4 at room temperature for 4 h; single-particle cryo-EM of the ternary complex", "settings": "both partners purified"}
{"binder": "B1", "values": [{"measurement": "binding result", "result": "binds"}]}
